The record followed here is patent publication US20250019425A1 (ADRX, published 2025).

Changes are numbered by the printed parent chain. Like-named read-outs stand apart in the source and are kept apart here.

Assay [1] has as its target T1, biotinylated TTR F87M L110M monomer (Avi_mTTR in vivo biotinylation construct) (human, biotin on the Avi tag (in vivo biotinylation by BirA)).
T1 construct: also called Biotinyl-Monomer; biotinyl-mTTR
As to the kind of experiment: biolayer interferometry (Octet RED), antibody on anti-mouse biosensor, biotinylated TTR monomer. In general terms: BLI is a label-free optical method that tracks binding on a fibre tip over time.

Assay [2] has as its target TTR F87M L110M (monomeric TTR, mTTR), untagged (human, UniProt P02766 21-147). In words: sandwich ELISA, antibody coated, untagged mTTR, HRP pan-TTR polyclonal detection. (In an ELISA, binding on a coated surface is turned into a signal by an enzyme label.)
The target of assay [3] is T2, TTR S112I (dimer TTR, dTTR), untagged (human, UniProt P02766 21-147). In words: sandwich ELISA (Example 11): antibody coated on the plate, untagged TTR titrated, HRP-conjugated pan-TTR polyclonal antibody for detection.
In assay [4] the target is T3, wild-type TTR (wtTTR), untagged (human, UniProt P02766 21-147). The description is as above.
For assay [5], the target named is T1, biotinylated TTR F87M L110M monomer …. In words: indirect ELISA, biotinylated mTTR on Neutravidin plate, anti-mouse-HRP.
For assay [6] the target is unchanged. As to the kind of experiment: indirect ELISA, biotinylated mTTR on Neutravidin plate, anti-mouse-HRP; indirect ELISA; biotinylated mTTR captured on Neutravidin plate, anti-mouse-HRP detection.
Assay [7] addresses T2, TTR S112I (dimer TTR, dTTR), untagged. In words: sandwich ELISA (Example 11): antibody coated on the plate, untagged TTR titrated, HRP-conjugated pan-TTR polyclonal antibody for detection. This is another data set of the same source.
In assay [8] the target is T3, wild-type TTR (wtTTR), untagged. The description is as above. The source holds these as a separate data set.
The target in assay [9] is T1, biotinylated TTR F87M L110M monomer …. In words: indirect ELISA, biotinyl-mTTR bound to avidin plates.
The target in assay [10] is T2, TTR S112I (dimer TTR, dTTR), untagged. In words: sandwich ELISA (Example 11): antibody coated on the plate, untagged TTR titrated, HRP-conjugated pan-TTR polyclonal antibody for detection. The source holds these as a separate data set.
Assay [11] deals with T3, wild-type TTR (wtTTR), untagged. The description is as above. This is another data set of the same source.
Assay [12] deals with T1, biotinylated TTR F87M L110M monomer …. As to the kind of experiment: indirect ELISA, biotinyl-mTTR bound to avidin plates. This is another data set of the same source.
Assay [13] has as its target biotinylated TTR S112I (dimer TTR) (human, UniProt P02766 21-147). As to the kind of experiment: indirect ELISA (Examples 4 and 8): biotinylated TTR on Neutravidin plate, antibody titrated, HRP-conjugated anti-species antibody.

B1: murine anti-human monomer TTR antibody Ab5 (antibody, V domains shown)
VH: EVQLQQSGAELVKPGASVKLSCTASGFNIKDYYMHWVKQRTEQGLEWIGRIDPEDGETKYAPKFQGKATITADTSSNTAYLQLSSLTSEDTAVYYCALLWLRRGRGYWGQGTTLTVSS
VL: DIQMTQSPSSLSASLGERVSLTCRASQEISGYLSWLQQKPDGTIKRLIYAASTLDSGVPKRFSGSRSGSDYSLTISSLESEDFADYYCLQYASYPPTFGAGTKLELK
notes: Murine monoclonal antibody; entries are called Mouse Ab5 HC / LC but hold only the variable domains; also called mAb 5; Antibody 5
The Kd is the free concentration of one partner at which half of the binding sites on the other are occupied at equilibrium, for simple one-to-one binding. For orientation: EC50 means the concentration that produces a half-maximal response. Read a low EC50 as an effect from little substance. In the case of B1, the Kd in [1] was determined as 1.31 nM. For the same molecule, the EC50 in assay [2] is approximately 14.2 nM; in assay [5] it was 0.2 nM. The binding result in assay [3] and in assay [4] was “no binding (tested: about 20 µM TTR)” each time.

B2: murine anti-human monomer TTR antibody Ab7 (antibody, V domains shown)
VH: EVQLQQSGAELVKPGASVKLSCTASGFNIKDYYMHWVKQRTEQGLEWIGRIDPEDGETKYAPKFQGKATITADTSSNTAYLQLSSLTSEDTAVYYCARGKTPFAYWGQGTLVTVSA
VL: B1 VL with S56F, S67F, A92D, P96F, A100S, L106I
notes: Murine monoclonal antibody; entries are called Mouse Ab7 HC / LC but hold only the variable domains; also called Antibody 7
In the case of B2, the EC50 was 4.22 nM in [6] and approximately 43.2 nM in [2]. Also, the binding result in assay [7] and in assay [8] was “no binding (tested: about 20 µM TTR)” each time.

B3: murine anti-human monomer TTR antibody Ab2 (antibody, V domains shown)
VH: EVKLEQSGGGLVQPGGSMKLSCVASGFTFSNYWMNWVRQSPEKGLEWVAQIRLKSDNYATHYAESVKGRFTISRDDSKSSVYLQMNNLRAEDTGIYYCTGVFTYWGQGTLVTVSA
VL: NIVLTQSPASLAVSLGQRATISCRTSESVDSYGNSFMHWYQQKPGQPPKLLIYLASNLESGVPARFSGSGSRTDFTLTIDPVEADDAATYYCQQNNEDPMYTFGGGTKLEIK
notes: Murine monoclonal antibody; also called mAb 2; Antibody 2
The molecule B3 yielded a Kd in assay [1] of 6.21 nM. In addition, the EC50 in [9] stood at 0.16 nM; in assay [2], 98.9 nM; in assay [5] it was 1.45 nM.

B4: murine anti-human monomer TTR antibody Ab3 (antibody, V domains shown)
VH: EVQLQQSGPVLVKPGASVKMSCKASGYTFTDYYMNWVKQSHGKSLEWIGVINPYNGGTSYNQKFKGKATLTVDKSSSTAYMELNSLTSEDSAVYYCARDLTGTGGAMDYWGQGTSVTVSS
VL: QIVLTQSPAILSASPGEKVTMTCRASSSVSYMHWYQQKPGSSPKPWIYATSNLASGVPARFSGSGSGTSYSLTISRVEAEDAATYYCQQWSSNPLTFGAGTKLELK
notes: Murine monoclonal antibody; entries are called Mouse Ab3 HC / LC but hold only the variable domains; also called mAb 3; Antibody 3
With B4, the binding result in assay [10] and in assay [11] was “no binding (tested: about 20 µM TTR)” each time. The molecule also returned a Kd in assay [1] of 12.1 nM. Further, the EC50 in [2] came out at 128 nM; in assay [5], 14.1 nM.

B5: Humanized Ab1 construct (antibody, V domains shown)
VH: QVQLVQSGAEVKKPGASVKVSCKASGYTFTSYWMHWVRQAPGQGLEWIGNIDPSDSETHYAQKFQGRATLTVDKSTSTVYMELSSLRSEDTAVYYCARGRNYWYFDVWGTGTMVTVSS
VL: DIQMTQSPSSLSASVGDRVTITCRASESVDNYGISFMNWFQQKPGKPPKLLIYAASNQGSGVPSRFSGSGSGTDFTLTISSLQPEDFATYYCQQSKEVPWTFGGGTKLEIK
notes: also called humanized antibody Ab1; humanized construct for Ab1
Regarding B5, the “fold weaker than the IgG2 form of Ab1” value in assay [12] was approximately 10 fold. Further, in assay [13], the binding result is recorded as “no binding (tested: about 60 nM antibody)”. This molecule yielded a half-maximal effective concentration (EC50) in assay [9] of 0.55 nM.

B6: murine anti-human monomer TTR antibody Ab6 (antibody, V domains shown)
VH: QVQLQQSGAELMKPGASVKLSCKATGYTFTGYWIEWVKQRPGHGLEWIGEILPGSGSTNYNEKFKGKATFTADTSSNTAYMQLSSLTTEDSAIYYCARLRGSSYPWYFDYWGQGTTLTVSS
VL: DIQMTQSPASLSVSVGETVTITCRASENIYSNLAWYQQKQGKSPQLLVYAATNLADGVPSRFSGSGSGTQYSLKINSLQSEDFGSYYCQHFWGTPYTFGGGTKLEIK
notes: Murine monoclonal antibody; entries are called Mouse Ab6 HC / LC but hold only the variable domains; also called Antibody 6
On to B6, for which binding in [1] was characterised by a dissociation constant (Kd) of 11.4 nM. Further, the EC50 in assay [2] was approximately 12.7 nM; in [5] it was 0.45 nM.
